The text below walks through data of publication PMC6201732 (Protein Science : A Publication of the Protein Society, 2018).

The data set deals with the molecule itself. The experiment in a line: SEC-MALS.

B1: Chlamydia trachomatis Serovar F native major outer membrane protein (nMOMP), from adherent HeLa 229 cells (natural protein)
chain: LPVGNPAEPSLMIDGILWEGFGGDPCDPCTTWCDAISMRMGYYGDFVFDRVLKTDVNKEFEMGEALAGASGNTTSTLSKLVERTNPAYGKHMQDAEMFTNAACMTLNIWDRFDVFCTLGATSGYLKGNSASFNLVGLFGDGVNATKPAADSIPNVQLNQSVVELYTDTTFAWSVGARAALWECGCATLGASFQYAQSKPKIEELNVLCNAAEFTINKPKGYVGKEFPLDLTAGTDAATGTKDASIDYHEWQASLSLSYRLNMFTPYIGVKWSRASFDSDTIRIAQPRLVTPVVDITTLNPTIAGCGSVAGANTEGQISDTMQIVSLQLNKMKSRKSCGIAVGTTIVDADKYAVTVETRLIDERAAHVNAQFRF
Broadly, the stoichiometry N is a count of units in the complex or per binding partner. Turning to B1, the “stoichiometry N” value is 2.85.

B2: Chlamydia trachomatis Serovar D native major outer membrane protein (nMOMP), from adherent HeLa 229 cells (natural protein)
chain: LPVGNPAEPSLMIDGILWEGFGGDPCDPCATWCDAISMRVGYYGDFVFDRVLKTDVNKEFQMGAKPTTDTGNSAAPSTLTARENPAYGRHMQDAEMFTNAACMALNIWDRFDVFCTLGATSGYLKGNSASFNLVGLFGDNENQKTVKAESVPNMSFDQSVVELYTDTTFAWSVGARAALWECGCATLGASFQYAQSKPKVEELNVLCNAAEFTINKPKGYVGKEFPLDLTAGTDAATGTKDASIDYHEWQASLALSYRLNMFTPYIGVKWSRASFDADTIRIAQPKSATAIFDTTTLNPTIAGAGDVKTGAEGQLGDTMQIVSLQLNKMKSRKSCGIAVGTTIVDADKYAVTVETRLIDERAAHVNAQFRF
In the case of B2, the “stoichiometry N” value stood at 2.8.

B3: Chlamydia muridarum native major outer membrane protein (nMOMP), from adherent HeLa 229 cells (natural protein)
chain: LPVGNPAEPSLMIDGILWEGFGGDPCDPCTTWCDAISLRLGYYGDFVFDRVLKTDVNKQFEMGAAPTGDADLTTAPTPASRENPAYGKHMQDAEMFTNAAYMALNIWDRFDVFCTLGATSGYLKGNSAAFNLVGLFGRDETAVAADDIPNVSLSQAVVELYTDTAFAWSVGARAALWECGCATLGASFQYAQSKPKVEELNVLCNAAEFTINKPKGYVGQEFPLNIKAGTVSATDTKDASIDYHEWQASLALSYRLNMFTPYIGVKWSRASFDADTIRIAQPKLETSILKMTTWNPTISGSGIDVDTKITDTLQIVSLQLNKMKSRKSCGLAIGTTIVDADKYAVTVETRLIDERAAHVNAQFRF
With B3, the “stoichiometry N” value was 2.59.

B4: Chlamydia trachomatis Serovar E native major outer membrane protein (nMOMP), from adherent HeLa 229 cells (natural protein)
chain: LPVGNPAEPSLMIDGILWEGFGGDPCDPCTTWCDAISMRMGYYGDFVFDRVLKTDVNKEFQMGDKPTSTTGNATAPTTLTARENPAYGRHMQDAEMFTNAACMALNIWDRFDVFCTLGASSGYLKGNSASFNLVGLFGDNENQSTVKTNSVPNMSLDQSVVELYTDTAFSWSVGARAALWECGCATLGASFQYAQSKPKVEELNVLCNAAEFTINKPKGYVGQEFPLALIAGTDAATGTKDASIDYHEWQASLALSYRLNMFTPYIGVKWSRASFDADTIRIAQPKSATAIFDTTTLNPTIAGAGDVKASAEGQLGDTMQIVSLQLNKMKSRKSCGIAVGTTIVDADKYAVTVETRLIDERAAHVNAQFRF
B4: the “stoichiometry N” value worked out at 2.52.

B5: Chlamydia trachomatis Serovar E native major outer membrane protein (nMOMP), from CHO suspension cells (natural protein)
chain: LPVGNPAEPSLMIDGILWEGFGGDPCDPCTTWCDAISMRMGYYGDFVFDRVLKTDVNKEFQMGDKPTSTTGNATAPTTLTARENPAYGRHMQDAEMFTNAACMALNIWDRFDVFCTLGASSGYLKGNSASFNLVGLFGDNENQSTVKTNSVPNMSLDQSVVELYTDTAFSWSVGARAALWECGCATLGASFQYAQSKPKVEELNVLCNAAEFTINKPKGYVGQEFPLALIAGTDAATGTKDASIDYHEWQASLALSYRLNMFTPYIGVKWSRASFDADTIRIAQPKSATAIFDTTTLNPTIAGAGDVKASAEGQLGDTMQIVSLQLNKMKSRKSCGIAVGTTIVDADKYAVTVETRLIDERAAHVNAQFRF
Regarding B5, the “stoichiometry N” value was 2.27.

B6: Chlamydia trachomatis Serovar E native major outer membrane protein (nMOMP), from HeLa suspension cells (natural protein)
chain: LPVGNPAEPSLMIDGILWEGFGGDPCDPCTTWCDAISMRMGYYGDFVFDRVLKTDVNKEFQMGDKPTSTTGNATAPTTLTARENPAYGRHMQDAEMFTNAACMALNIWDRFDVFCTLGASSGYLKGNSASFNLVGLFGDNENQSTVKTNSVPNMSLDQSVVELYTDTAFSWSVGARAALWECGCATLGASFQYAQSKPKVEELNVLCNAAEFTINKPKGYVGQEFPLALIAGTDAATGTKDASIDYHEWQASLALSYRLNMFTPYIGVKWSRASFDADTIRIAQPKSATAIFDTTTLNPTIAGAGDVKASAEGQLGDTMQIVSLQLNKMKSRKSCGIAVGTTIVDADKYAVTVETRLIDERAAHVNAQFRF
Regarding B6, the “stoichiometry N” value turned out to be 2.3.
